Among the data in paper PMC2185068 are stoichiometry N values, retold here.

The test concerns the target Myc-nectin-1-CP (aa 379–518) (human). The test is described as follows: pull-down.

A word on the stoichiometry N: it is a count of units in the complex or per binding partner.

B1: GST-l-afadin-PDZ (aa 1007–1125) (domain or fragment)
chain: PLRKEPEVITVTLKKQNGMGLSIVAAKGAGQDKLGIYVKSVVKGGAADVDGRLAAGDQLLSVDGRSLVGLSQERAAELMTRTSSVVTLEVAKQGAIYHGLATLLNQPSPMMQRISDRRG
As to B1, the stoichiometry N came to 1.
